Laboratory results: patent US20130005646A1 (Novo Nordisk, published 2013)
Starred links: 1 amine or outer side, 2 acyl side, 3 side chain; linkers in the order of their positions; H or OH if unused. Positions of bridges follow the written chain, without caps; N, C: chain ends. *: point of attachment. C20 diacid = O=C(O)CCCCCCCCCCCCCCCCCCC(=O)*; C18 diacid = O=C(O)CCCCCCCCCCCCCCCCC(=O)*; γGlu = O=C(O)[C@H](CCC(=O)[*:2])N[*:1]

T1: rat calcitonin (a) receptor (rat, UniProt P32214 25-516)
T1 sequence (looked up): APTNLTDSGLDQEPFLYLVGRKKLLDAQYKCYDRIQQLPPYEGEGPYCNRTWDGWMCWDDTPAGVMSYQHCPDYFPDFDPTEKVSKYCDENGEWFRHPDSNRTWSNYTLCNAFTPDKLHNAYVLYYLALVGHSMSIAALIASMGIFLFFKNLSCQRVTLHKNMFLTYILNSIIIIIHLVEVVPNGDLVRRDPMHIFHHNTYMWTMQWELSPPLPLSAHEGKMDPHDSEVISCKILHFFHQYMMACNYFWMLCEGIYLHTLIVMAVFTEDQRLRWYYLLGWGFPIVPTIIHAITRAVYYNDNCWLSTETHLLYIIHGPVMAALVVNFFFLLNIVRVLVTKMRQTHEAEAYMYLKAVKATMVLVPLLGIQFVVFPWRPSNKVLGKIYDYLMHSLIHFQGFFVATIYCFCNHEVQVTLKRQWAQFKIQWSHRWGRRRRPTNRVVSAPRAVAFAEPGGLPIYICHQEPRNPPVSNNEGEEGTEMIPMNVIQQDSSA

T2: human amylin 3(a) receptor (human calcitonin receptor + RAMP-3) (human, UniProt P30988 25-474; O60896 24-148)
T2 sequence (looked up) 1: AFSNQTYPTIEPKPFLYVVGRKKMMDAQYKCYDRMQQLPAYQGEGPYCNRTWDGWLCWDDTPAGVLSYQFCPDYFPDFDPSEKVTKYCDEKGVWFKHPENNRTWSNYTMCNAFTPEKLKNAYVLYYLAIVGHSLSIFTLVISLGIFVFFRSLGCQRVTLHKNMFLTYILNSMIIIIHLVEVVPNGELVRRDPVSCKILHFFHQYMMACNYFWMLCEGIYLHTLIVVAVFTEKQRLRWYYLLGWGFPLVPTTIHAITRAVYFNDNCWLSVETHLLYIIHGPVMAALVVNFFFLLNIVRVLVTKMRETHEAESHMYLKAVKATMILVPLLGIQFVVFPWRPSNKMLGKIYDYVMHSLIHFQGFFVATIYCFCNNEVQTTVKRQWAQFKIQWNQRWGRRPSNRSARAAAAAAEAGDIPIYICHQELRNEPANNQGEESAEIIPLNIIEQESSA
T2 sequence (looked up) 2: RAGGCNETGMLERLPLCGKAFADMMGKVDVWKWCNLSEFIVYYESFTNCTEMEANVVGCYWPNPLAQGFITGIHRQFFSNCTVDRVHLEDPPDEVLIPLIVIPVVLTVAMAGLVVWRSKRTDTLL

T3: rat amylin 3(a) receptor (rat calcitonin(a) receptor + rat RAMP3) (rat, UniProt P32214 25-516; Q9JJ73 23-147)
T3 sequence (looked up) 1: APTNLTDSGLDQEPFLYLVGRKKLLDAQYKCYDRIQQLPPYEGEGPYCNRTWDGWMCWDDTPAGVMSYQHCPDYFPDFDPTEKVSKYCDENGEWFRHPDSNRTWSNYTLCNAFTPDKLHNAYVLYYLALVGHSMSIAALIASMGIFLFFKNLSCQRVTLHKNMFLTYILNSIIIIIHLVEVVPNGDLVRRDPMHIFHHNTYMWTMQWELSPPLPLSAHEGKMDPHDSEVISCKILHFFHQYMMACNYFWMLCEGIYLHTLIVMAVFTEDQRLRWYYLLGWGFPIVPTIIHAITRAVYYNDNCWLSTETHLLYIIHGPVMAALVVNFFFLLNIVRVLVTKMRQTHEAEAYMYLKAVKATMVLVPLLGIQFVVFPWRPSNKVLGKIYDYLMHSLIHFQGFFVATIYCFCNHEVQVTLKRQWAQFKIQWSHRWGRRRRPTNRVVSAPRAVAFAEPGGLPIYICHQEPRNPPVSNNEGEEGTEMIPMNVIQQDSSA
T3 sequence (looked up) 2: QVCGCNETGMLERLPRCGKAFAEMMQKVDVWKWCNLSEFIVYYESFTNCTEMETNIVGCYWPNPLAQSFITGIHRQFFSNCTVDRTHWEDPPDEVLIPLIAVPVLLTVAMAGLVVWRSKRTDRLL

T4: human calcitonin (a) receptor (human, UniProt P30988 25-474)
T4 sequence (looked up): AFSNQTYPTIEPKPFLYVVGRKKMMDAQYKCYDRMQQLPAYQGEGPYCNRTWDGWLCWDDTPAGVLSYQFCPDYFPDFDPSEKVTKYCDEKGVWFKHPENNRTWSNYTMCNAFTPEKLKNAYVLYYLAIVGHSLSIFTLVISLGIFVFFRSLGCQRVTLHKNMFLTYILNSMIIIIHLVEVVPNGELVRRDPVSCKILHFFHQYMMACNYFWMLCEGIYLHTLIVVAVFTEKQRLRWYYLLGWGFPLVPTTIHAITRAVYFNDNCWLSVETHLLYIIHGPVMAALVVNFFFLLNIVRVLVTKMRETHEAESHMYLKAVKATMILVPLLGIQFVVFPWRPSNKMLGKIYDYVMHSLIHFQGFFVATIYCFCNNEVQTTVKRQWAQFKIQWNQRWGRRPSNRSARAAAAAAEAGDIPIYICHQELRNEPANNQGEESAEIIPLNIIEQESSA


Tests used:
Assay in all cases: cell-based or functional assay
[1] = biological target: T1, rat calcitonin (a) receptor
[2] = biological target: T2, human amylin 3(a) receptor (human …)
[3] = biological target: T3, rat amylin 3(a) receptor (rat …)
[4] = biological target: T4, human calcitonin (a) receptor

CTa receptor rat EC50 [1] [nM]	Amylin receptor human EC50 [2] [nM]	Amylin receptor rat EC50 [3] [nM]	CTa receptor human EC50 [4] [nM]	Binder
0.433	0.0469	0.122	0.0792	{C18 diacid-γGlu}-KCNTATCATQRLAEFLHHSSNNFGPILPPTNVGSNTY-NH2 (disulfide 2-7; not fully specified; printed as N-alpha-[(S)-4-Carboxy-4-(17-carboxyheptadecanoylamino)butyryl]-[Glu14,His17]-pramlintide) [N-alpha-[(S)-4-Carboxy-4-(17-carboxyheptadecanoylamino)butyryl]-[Glu14,His17]-pramlintide]
2.43	0.0739	0.135	0.274	{C18 diacid-γGlu}-EKCNTATCATQRLAEFLHHSSNNFGPILPPTNVGSNTY-NH2 (disulfide 3-8; SMILES CC[C@H](C)[C@H](NC(=O)[C@@H]1CCCN1C(=O)CNC(=O)[C@H](Cc1ccccc1)NC(=O)[C@H](CC(N)=O)NC(=O)[C@H](CC(N)=O)NC(=O)[C@H](CO)NC(=O)[C@H](CO)NC(=O)[C@H](Cc1c[nH]cn1)NC(=O)[C@H](Cc1c[nH]cn1)NC(=O)[C@H](CC(C)C)NC(=O)[C@H](Cc1ccccc1)NC(=O)[C@H](CCC(=O)O)NC(=O)[C@H](C)NC(=O)[C@H](CC(C)C)NC(=O)[C@H](CCCNC(=N)N)NC(=O)[C@H](CCC(N)=O)NC(=O)[C@@H](NC(=O)[C@H](C)NC(=O)[C@@H]1CSSC[C@H](NC(=O)[C@H](CCCCN)NC(=O)[C@H](CCC(=O)O)NC(=O)CC[C@H](NC(=O)CCCCCCCCCCCCCCCCC(=O)O)C(=O)O)C(=O)N[C@@H](CC(N)=O)C(=O)N[C@@H]([C@@H](C)O)C(=O)N[C@@H](C)C(=O)N[C@@H]([C@@H](C)O)C(=O)N1)[C@@H](C)O)C(=O)N[C@@H](CC(C)C)C(=O)N1CCC[C@H]1C(=O)N1CCC[C@H]1C(=O)N[C@H](C(=O)N[C@@H](CC(N)=O)C(=O)N[C@H](C(=O)NCC(=O)N[C@@H](CO)C(=O)N[C@@H](CC(N)=O)C(=O)N[C@H](C(=O)N[C@@H](Cc1ccc(O)cc1)C(N)=O)[C@@H](C)O)C(C)C)[C@@H](C)O) [N-alpha-[(S)-4-Carboxy-4-(17-carboxyheptadecanoylamino)butyryl]-Glu-[Glu14,His17]-pramlintide]
4.97	0.299	0.643	0.352	{C20 diacid-γGlu}-EKCNTATCATQRLAEFLHHSSNNFGPILPPTNVGSHTY-NH2 (disulfide 3-8; not fully specified; printed as N-alpha-[(S)-4-Carboxy-4-(19-carboxynonadecanoylamino)butyryl]-Glu-[Glu14,His17,His35]-pramlintide) [N-alpha-[(S)-4-Carboxy-4-(19-carboxynonadecanoylamino)butyryl]-Glu-[Glu14,His17,His35]-pramlintide]
0.076	0.062	0.16	0.0537	{C20 diacid-γGlu}-KCNTATCATQRLAEFLHHSSNNFGPILPPTNVGSNTP-NH2 (disulfide 2-7; not fully specified; printed as N-alpha-[(S)-4-Carboxy-4-(19-carboxynonadecanoylamino)butyryl]-[Glu14,His17,Pro37]-pramlintide) [N-alpha-[(S)-4-Carboxy-4-(19-carboxynonadecanoylamino)butyryl]-[Glu14,His17,Pro37]-pramlintide]
